This is an account of results in PMC9331743, “Portable Vertical Graphene@Au-Based Electrochemical Aptasensing Platform for Point-of-Care Testing of Tau Protein in the Blood”.

This series concerns the target Tau441 (tau protein) (UniProt P10636-8 1-441). The experiment in a line: electrochemical aptasensor (DPV); aptamer on VG@Au electrode, MCH blocked; LOD 0.034 pg/mL, linear 0.1 pg/mL-1 ng/mL (not a Kd); Tau in PBS (10 mM, pH 7.4), 1 h at 37 C on electrode; DPV read in 5 mM Fe(CN)6 3-/4- with 0.1 M KCl. The settings on record: protein: commercial.

Sequence of Tau441 (tau protein) (P10636 other isoform, or with tags, fused parts or gaps): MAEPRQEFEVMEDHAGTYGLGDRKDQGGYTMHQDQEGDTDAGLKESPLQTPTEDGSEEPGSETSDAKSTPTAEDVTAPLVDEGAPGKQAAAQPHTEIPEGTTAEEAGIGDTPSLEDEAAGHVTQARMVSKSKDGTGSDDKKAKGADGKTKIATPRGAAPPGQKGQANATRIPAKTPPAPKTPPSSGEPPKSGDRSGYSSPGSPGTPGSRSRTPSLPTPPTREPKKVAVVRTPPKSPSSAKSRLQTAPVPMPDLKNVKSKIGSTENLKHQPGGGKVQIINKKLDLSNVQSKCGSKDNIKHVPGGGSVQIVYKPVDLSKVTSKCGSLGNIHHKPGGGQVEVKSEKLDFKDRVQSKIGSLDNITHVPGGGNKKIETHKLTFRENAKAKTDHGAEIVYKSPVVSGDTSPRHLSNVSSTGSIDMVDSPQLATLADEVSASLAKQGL

B1: tau DNA aptamer (ssDNA)
DNA: CAGCACCGTCAACTGAATGGGTTGGCCGGGCAGCGGGGGGTAGGCTGGTGATGCGATGGAGATGT
modifications: 5' SH-(CH2)6 thiol linker
B1: the binding result is “binds”.
